According to patent US20140274782A1 (Stanford University, published 2014):

Legend:
Assay in all cases: ProtoArray, GST-treated control array;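 further: human protein microarray (about 9500 recombinant proteins) incubated overnight with GST alone plus SAM cofactor as the negative control for G9a SET domain methylation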
[1] = target: T1, ZRANB1-zinc finger, RAN-binding domain containing 1 (ZRANB1) (human, UniProt Q9UGI0 1-708)
T1 sequence (looked up): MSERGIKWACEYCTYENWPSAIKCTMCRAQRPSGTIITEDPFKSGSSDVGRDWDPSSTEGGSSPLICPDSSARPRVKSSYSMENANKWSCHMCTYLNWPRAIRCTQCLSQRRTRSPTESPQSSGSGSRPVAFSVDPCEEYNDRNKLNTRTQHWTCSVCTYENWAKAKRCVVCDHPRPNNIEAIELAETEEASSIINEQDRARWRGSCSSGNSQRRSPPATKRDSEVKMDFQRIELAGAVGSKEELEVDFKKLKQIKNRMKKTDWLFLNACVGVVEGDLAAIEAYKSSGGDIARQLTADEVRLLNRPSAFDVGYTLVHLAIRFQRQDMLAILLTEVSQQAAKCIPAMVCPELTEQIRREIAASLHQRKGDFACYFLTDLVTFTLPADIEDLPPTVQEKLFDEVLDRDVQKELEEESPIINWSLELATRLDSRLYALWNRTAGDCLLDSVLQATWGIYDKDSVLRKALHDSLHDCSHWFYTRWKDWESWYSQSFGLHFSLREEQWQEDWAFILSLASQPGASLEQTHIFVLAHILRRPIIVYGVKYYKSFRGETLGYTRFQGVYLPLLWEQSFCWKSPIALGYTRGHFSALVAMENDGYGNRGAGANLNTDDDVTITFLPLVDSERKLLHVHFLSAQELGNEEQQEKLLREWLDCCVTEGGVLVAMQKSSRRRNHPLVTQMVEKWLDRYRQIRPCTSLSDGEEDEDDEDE

SCGB2A2-Mammaglobin-A = SCGB2A2-Mammaglobin-A (human, UniProt Q13296 19-93, limits assumed)
[2] = target: T2, C11orf73-chromosome 11 open reading frame 73 (C11orf73) (human, UniProt Q53FT3 1-197)
T2 sequence (looked up): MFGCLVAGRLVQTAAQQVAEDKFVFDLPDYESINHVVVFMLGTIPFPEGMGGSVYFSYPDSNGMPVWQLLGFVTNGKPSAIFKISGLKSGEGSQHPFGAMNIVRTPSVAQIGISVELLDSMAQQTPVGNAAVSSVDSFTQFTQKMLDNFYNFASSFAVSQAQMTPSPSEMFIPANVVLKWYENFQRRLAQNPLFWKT

[3] = target: T3, BHMT-betaine-homocysteine methyltransferase (BHMT) (human, UniProt Q93088 1-406)
T3 sequence (looked up): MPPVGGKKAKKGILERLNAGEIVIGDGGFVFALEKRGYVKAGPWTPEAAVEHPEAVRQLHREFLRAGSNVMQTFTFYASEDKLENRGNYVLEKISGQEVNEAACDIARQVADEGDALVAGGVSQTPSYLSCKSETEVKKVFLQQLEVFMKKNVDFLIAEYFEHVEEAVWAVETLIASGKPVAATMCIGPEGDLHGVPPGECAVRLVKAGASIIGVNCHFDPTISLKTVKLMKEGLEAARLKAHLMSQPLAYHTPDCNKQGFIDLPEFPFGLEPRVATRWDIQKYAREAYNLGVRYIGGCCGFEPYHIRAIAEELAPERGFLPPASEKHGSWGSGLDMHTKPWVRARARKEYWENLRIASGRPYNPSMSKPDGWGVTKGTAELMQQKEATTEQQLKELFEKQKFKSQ

[4] = target: T4, TMED5-transmembrane emp24 protein transport domain containing 5 (TMED5) (human, UniProt Q9Y3A6 28-229, limits assumed)
T4 sequence (looked up): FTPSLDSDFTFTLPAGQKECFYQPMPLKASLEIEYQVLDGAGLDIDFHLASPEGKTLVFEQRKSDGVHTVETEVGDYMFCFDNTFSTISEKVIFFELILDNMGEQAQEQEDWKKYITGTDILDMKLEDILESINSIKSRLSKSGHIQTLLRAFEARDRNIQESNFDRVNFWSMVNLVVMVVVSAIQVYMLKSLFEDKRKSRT

[5] = target: T5, CSF3-Granulocyte colony-stimulating factor (human, UniProt P09919 31-207, limits assumed)
T5 sequence (looked up): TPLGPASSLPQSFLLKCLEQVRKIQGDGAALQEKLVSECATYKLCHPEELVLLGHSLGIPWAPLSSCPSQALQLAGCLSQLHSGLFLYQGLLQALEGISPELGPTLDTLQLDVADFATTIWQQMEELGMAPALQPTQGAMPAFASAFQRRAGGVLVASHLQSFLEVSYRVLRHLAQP

[6] = target: ARL6IP1-ADP-ribosylation factor-like 6 interacting protein 1 (ARL6IP1) (human, UniProt Q15041 1-203, limits assumed)
[7] = target: T6, CLDN15-claudin 15 (CLDN15) (human, UniProt P56746 1-228)
T6 sequence (looked up): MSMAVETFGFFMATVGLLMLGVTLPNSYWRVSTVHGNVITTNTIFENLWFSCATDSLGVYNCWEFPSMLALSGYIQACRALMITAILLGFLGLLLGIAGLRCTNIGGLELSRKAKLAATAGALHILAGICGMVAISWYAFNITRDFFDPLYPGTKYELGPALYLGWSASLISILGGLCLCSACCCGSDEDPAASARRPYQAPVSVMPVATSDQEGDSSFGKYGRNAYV

[8] = target: KRR1-KRR1, small subunit (SSU) processome component, homolog (yeast) (KRR1) (human, UniProt Q13601 1-381, limits assumed)
[9] = target: T7, LRRC20-leucine rich repeat containing 20 (LRRC20) (human, UniProt Q8TCA0 1-184, limits assumed)
T7 sequence (looked up): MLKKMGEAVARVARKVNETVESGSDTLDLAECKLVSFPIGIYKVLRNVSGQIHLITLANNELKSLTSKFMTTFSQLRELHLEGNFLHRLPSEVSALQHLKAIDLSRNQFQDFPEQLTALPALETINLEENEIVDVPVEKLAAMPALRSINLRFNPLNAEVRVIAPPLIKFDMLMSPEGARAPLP

SCGB2A2-Mammaglobin-A, sequence (Q13296 19-93 limits assumed): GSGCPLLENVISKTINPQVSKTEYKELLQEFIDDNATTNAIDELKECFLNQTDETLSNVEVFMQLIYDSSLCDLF
ARL6IP1-ADP-ribosylation factor-like 6 interacting protein 1 (ARL6IP1), sequence (Q15041 whole entry): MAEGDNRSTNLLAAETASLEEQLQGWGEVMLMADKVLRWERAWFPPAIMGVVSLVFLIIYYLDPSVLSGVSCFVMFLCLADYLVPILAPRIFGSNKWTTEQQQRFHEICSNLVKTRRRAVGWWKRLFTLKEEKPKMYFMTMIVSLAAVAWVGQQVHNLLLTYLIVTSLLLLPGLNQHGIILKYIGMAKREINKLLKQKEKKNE
KRR1-KRR1, small subunit (SSU) processome component, homolog (yeast) (KRR1), sequence (Q13601 whole entry): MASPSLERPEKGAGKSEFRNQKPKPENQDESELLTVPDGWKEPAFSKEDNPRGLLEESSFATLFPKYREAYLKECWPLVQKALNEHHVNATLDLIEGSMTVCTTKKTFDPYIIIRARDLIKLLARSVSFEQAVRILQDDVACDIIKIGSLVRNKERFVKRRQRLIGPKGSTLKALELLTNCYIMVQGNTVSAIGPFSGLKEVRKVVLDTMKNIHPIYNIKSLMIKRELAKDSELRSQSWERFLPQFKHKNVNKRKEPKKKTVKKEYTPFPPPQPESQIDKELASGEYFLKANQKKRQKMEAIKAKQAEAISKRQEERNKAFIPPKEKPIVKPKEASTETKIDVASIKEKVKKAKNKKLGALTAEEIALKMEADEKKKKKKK

B1: 3× Flag-3×MBT (designed binder)
chain: EEWSSSQPATGEKKECWSWESYLEEQKAITAPVSLFQDSQAVTHNKNGFKLGMKLEGIDPQHPSMYFILTVAEVCGYRLRLHFDGYSECHDFWVNANSPDIHPAGWFEKTGHKLQPPKGYKEEEFSWSQYLRSTRAQAAPKHLFVSQSHSPPPLGFQVGMKLEAVDRMNPSLVCVASVTDVVDSRFLVHFDNWDDTYDYWCDPSSPYIHPVGWCQKQGKPLTPPQDYPDPDNFCWEKYLEETGASAVPTWAFKVRPPHSFLVNMKLEAVDRRNPALIRVASVEDVEDHRIKIHFDGWSHGYDFWIDADHPDIHPAGWCSKTGHPLQPPLGPREPSSASPGG
notes: also called Flag-tagged 3×MBT; 3xFlag-3xMBT; not shown: made by PreScission cleavage of GST-3× Flag-3×MBT
[1]
  GST Average SNR: -0.43
SCGB2A2-Mammaglobin-A
  GST Average SNR: 0.983
[2]
  GST Average SNR: -1.4
[3]
  GST Average SNR: 1.44
[4]
  GST Average SNR: -0.425
[5]
  GST Average SNR: 1.27
[6]
  GST Average SNR: 1.05
[7]
  GST Average SNR: -0.296
[8]
  GST Average SNR: 0.566
[9]
  GST Average SNR: 1.4
